From article PMC4640650 (Science Advances, 2015)

Molecular target: the molecule itself
Test: crystal structure

B1: ATP synthase c-subunit of Mycobacterium phlei (Fo rotor ring, c9 ring) (natural protein, UniProt A0A5N5V239 1-86, looked up)
chain: MELDPNALITAGALIGGGLIMGGGAIGAGIGDGIAGNALISGIARQPEAQGRLFTPFFITVGLVEAAYFINLAFMALFVFATPGLQ
stoichiometry N: 9
